Results from patent publication US20200347130A1 (JIANGSU HENGRUI MEDICINE, published 2020).

T1: Biotinylated CD96 antigen (human, UniProt P40200-2 22-503, limits assumed, biotinylated)
T1 sequence (looked up): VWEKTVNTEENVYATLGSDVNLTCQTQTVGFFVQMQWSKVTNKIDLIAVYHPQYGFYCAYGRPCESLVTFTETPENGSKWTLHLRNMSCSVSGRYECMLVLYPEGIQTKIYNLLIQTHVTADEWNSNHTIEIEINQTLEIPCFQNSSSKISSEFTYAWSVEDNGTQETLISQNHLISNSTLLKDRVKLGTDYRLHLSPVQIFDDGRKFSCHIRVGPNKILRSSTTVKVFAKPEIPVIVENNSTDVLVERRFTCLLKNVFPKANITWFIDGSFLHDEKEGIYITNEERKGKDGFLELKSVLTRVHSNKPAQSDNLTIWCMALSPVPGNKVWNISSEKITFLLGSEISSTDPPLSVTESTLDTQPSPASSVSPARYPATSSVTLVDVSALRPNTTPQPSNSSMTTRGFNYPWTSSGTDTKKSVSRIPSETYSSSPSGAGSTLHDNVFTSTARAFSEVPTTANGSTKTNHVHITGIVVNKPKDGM

T2: CD96 epitope peptide #4 (62-81) (human)
T2 peptide: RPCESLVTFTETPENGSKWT

T3: CD96 epitope peptide #9 (137-156) (human)
T3 peptide: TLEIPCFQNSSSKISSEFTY

T4: CD96 epitope peptide #10 (149-170) (human)
T4 peptide: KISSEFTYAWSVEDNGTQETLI

T5: CD96 epitope peptide #18 (265-284) (human)
T5 peptide: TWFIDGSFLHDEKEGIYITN

T6: CD96 epitope peptide #19 (280-299) (human)
T6 peptide: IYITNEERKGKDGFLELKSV

T7: CD96 epitope peptide #21 (310-329) (human)
T7 peptide: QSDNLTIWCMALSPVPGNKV

B1: h1718-012 (antibody, V domains shown)
VH: EVQLVQSGAEVKKPGASVKVSCKASGYTITDYNMNWVRQAPGQRLEWIGVINPSYGITDYNQNFKDRVTITVDTSASTAYMELSSLRSEDTAVYYCAIQLRLPGYFDVWGQGTTVTVSS
VL: DIQMTQSPSSLSASVGDRVTITCKASQDINQYLNWFQQKPGKAPKTLIYRANRLVDGVPSRFSGSGSGQDYTLTISSLQPEDFATYYCLKYDEFPYTFGGGTKVEIK
notes: Only variable regions are tied to this name
B2: h1721-003 (antibody, V domains shown)
VH: EVTLKESGPVLVKPTETLTLTCTVSGFSLSSYGVNWIRQPPGKALEWLGVIWGDGSTNYHSALISRLTISKDTSKSQVVLTLTNMDPVDTATYYCAKNYFYGSRYGYAMDSWGQGTTVTVSS
VL: DIQMTQSPSSLSASVGDRVTITCRASENIYSSLAWYQQKPGKAPKLLIYNAKTLIEGVPSRFSGSGSGTDFTLTISSLQPEDFATYYCQHHYGTPYTFGGGTKVEIK
notes: Only variable regions are tied to this name; also called M721-003
B3: ch1720 (antibody, human IgG4 S228P, kappa, V domains shown)
VH: EFQLQQSGPELVKPGASVKISCKASAYSLTDYNMNWVKQSNGKSLEWIGVINPSYGISSYNQKFKGKATLTVDQSSSTAYMHLNSLTSEDSAVYYCARQLRLPGYFDVWGTGTTVTVSS
VL: DIKMTQSPSSKNASLGERVTITCKASQDINSYLNWFQQKPGKSPKTLIYRASRLVDGVPSRFSGSGSGQDYSLTISSLEYEDMGIYYCLKYDEFPYTFGGGTKLEIKR
notes: also called chimeric antibody corresponding to m1720
B4: h1722-010 (antibody, V domains shown)
VH: EVQLVQSGAEVKKPGSSVKVSCKASGGTFSDYWMHWVRQAPGQGLEWIGMLHPNSGTTSFNEKFKIRVTITADKSTSTAYMELSSLRSEDTAVYYCASDYSGPFAYWGQGTLVTVSS
VL: DIQLTQSPSSLSASVGDRVTITCSASSSVNYIHWYQQKPGKAPKRWIFDTSKLASGVPSRFSGSGSGTDYTLTISSLQPEDFATYYCQQWRSNPLTFGQGTKLEIK
notes: Only variable regions are tied to this name; also called M722-010
B5: ch1719 (antibody, human IgG4 S228P, kappa, V domains shown)
VH: QVQLKESGPGLVAPSQSLSITCTVSGFSLISYGVSWVRQPPGKGLEWLGVIWGDGNTNYHSVLISRLSIRKDDSKSQVFLKLNSLQTDDTATYYCAKNNYYGSRYGYPMDYWGQGTSVTVSS
VL: DIVMTQSHKFMSTSVGDRVSITCKATQDVGTAVAWYQQKPGHSPKLLIYWASTRHTGVPERFTGSGSGTDFTLTIDNVQSEDLADYFCQQYGSSVLTFGAGTKVELRR
notes: also called chimeric antibody corresponding to m1719
B6: ch1721 (antibody, human IgG4 S228P, kappa, V domains shown)
VH: QVQLKESGPGLVAPSQSLSITCTVSGFSLISYGVNWVRQPPGKGLEWLGVIWGDGSTNYHSALISRLSISKDDSKSQVFLNLNSLQTDDTATYYCAKNYFYGSRYGYAMDSWGQGISVTVSS
VL: DIQMTQSPASLSAAVGETVTITCRASENIYSSLAWYQQKQGKSPQLLVYNAKTLIETVASRFSGSGSGTQYSLKINSLQPEDFGSFYCQHHYGTPYTFGGGTKLEIKR
notes: also called chimeric antibody corresponding to m1721
B7: h1719-014 (antibody, V domains shown)
VH: EVTLKESGPVLVKPTETLTLTCTVSGFSLSSYGVSWVRQPPGKGLEWLGVIWGDGNTNYHSVLISRLTISKDTSKSQVVLTLTNMDPVDTATYYCAKNYYYGSRYGYPLDYWGQGTTVTVSS
VL: DIQMTQSPSSVSASVGDRVTITCKATQDVGTAVAWYQQKPGKSPKLLIYWASTRHTGVPERFSGSGSGTDFTLTISSLQPEDFATYFCQQYGSSVLTFGGGTKVEIK
notes: Only variable regions are tied to this name; also called M719-014

Legend:
[1] = biological target: T1, Biotinylated CD96 antigen; assay: competition ELISA, antibody B premixed with biotinylated CD96; competitor (coated antibody A): h1719-014
Method: (§1) Competitive assays of different antibodies binding to CD96 protein were used to classify binding epitopes of the antibodies. The specific experimental methods are as follows:
(§2) Antibody A was diluted to a concentration of 2 μg/ml with PBS buffer (Shanghai Yuanpei Biotechnology Co., Ltd. Cat No. B320), pH 7.4, added to a 96-well microtiter plate (Corning, Cat No. CLS3590-100EA) at a volume of 50 μl/well, and coated at 4° C. overnight. After discarding the liquid, 250 μl/well of 5% skim milk (BD skim milk, Cat No. 232100) blocking solution diluted with PBS was added, and the plate was incubated at 37° C. for 3 hours. After blocking, the blocking solution was discarded, and the plate was washed 5 times with PBST buffer (pH 7.4 PBS containing 0.05% tween-20) and stored for later use. Antibody B was diluted to 40 μg/ml and 8 μg/ml with 1% BSA, and Biotinylated CD96 antigen was simultaneously diluted to 4 μg/mL. Subsequently, antibody B and antigen were mixed in a 1:1 volume ratio, pre-incubated at 37° C. for 45 minutes, added into the enzyme plate coated with antibody A, thus incubating the plate in an incubator at 37° C. for 1.5 hours. After incubation, the plate was washed for 5 times with PBST, and 50 μl/well of HRP-labeled streptavidin (Sigma, Cat No. 52438) diluted with sample dilution was added, followed by incubating the plate at 37° C. for 1 hour. After washing the plate 5 times with PBST, 50 μl/well of TMB chromogenic substrate (KPL, Cat No. 52-00-03) was added for color development, followed by adding 50 μl/well of 1M H₂SO₄ to stop the reaction. The absorption value was read at 450 nm with a NOVOStar microplate reader, and the OD value was used to determine whether A and B CD96 antibodies compete with each other. Antibodies that compete with each other fall into the same class of antibodies, otherwise belong to different classes of antibodies (see FIG. 3 and Table 18).

[2] = biological target: T1, Biotinylated CD96 antigen; assay: competition ELISA, antibody B premixed with biotinylated CD96; competitor (coated antibody A): h1721-003
Method: as §1, §2

[3] = biological target: T2, CD96 epitope peptide #4 (62-81); assay: peptide ELISA ('-' indicates no binding, table note)
Method: (§3) The epitopes recognized by anti-CD96 antibody were detected by the assay of binding the antibody to different polypeptide fragments of CD96 protein. The fragments of different polypeptides of the CD96 antigen were coated on the microtiter plate. The signal density after the antibody was added was used to judge the binding activity of the antibody and the polypeptide. The specific experimental method is as follows:
(§4) The polypeptides were diluted to a concentration of 20 μg/ml with PBS buffer (Shanghai Yuanpei Biotechnology Co., Ltd. Cat No. B320), pH 7.4, added to a 96-well microtiter plate (Corning, Cat No. CLS3590-100EA) at a volume of 50 μl/well, and coated at 4° C. overnight. After discarding the liquid, 250 μl/well of 5% skim milk (BD skim milk, Cat No. 232100) blocking solution diluted with PBS was added, and the plate was incubated in an incubator at 37° C. for 3 hours. After blocking, the blocking solution was discarded, and the plate was washed 5 times with PBST buffer (pH 7.4 PBS containing 0.05% tween-20). 50 μl/well of different concentrations of the antibodies to be tested (hybridoma purification antibody or humanized antibody) diluted with sample dilution was added, and the plate was incubated in an incubator at 37° C. for 2 hours. […] After washing the plate 5 times with PBST, 50 μl/well of TMB chromogenic substrate (KPL, Cat No. 52-00-03) was added, the plate was incubated at room temperature for 5-15 min, followed by adding 50 μl/well of 1M H₂SO₄ to stop the reaction. The absorption value was read at 450 nm with a microplate reader (Thermo Scientific MuLtiskan MK3), and the epitopes that CD96 antibody can recognize were analyzed.

[4] = biological target: T3, CD96 epitope peptide #9 (137-156); assay: as above
Method: as §3, §4

[5] = biological target: T4, CD96 epitope peptide #10 (149-170); assay: as above
Method: as §3, §4

[6] = biological target: T5, CD96 epitope peptide #18 (265-284); assay: as above
Method: as §3, §4

[7] = biological target: T6, CD96 epitope peptide #19 (280-299); assay: as above
Method: as §3, §4

[8] = biological target: T7, CD96 epitope peptide #21 (310-329); assay: as above
Method: as §3, §4

Binder | competition (percent) [1] [%] | competition (percent) [2] [%] | binding result [3] | binding result [4] | binding result [5] | binding result [6] | binding result [7] | binding result [8]
B1 | 94.8 | 103 |  |  |  |  |  | 
B2 | 96 | 100 |  |  |  |  |  | 
B3 | 92.3 | 98.7 | no binding | no binding | no binding | no binding | no binding | no binding
B4 | 8.5 | -8.5 |  |  |  |  |  | 
B5 |  |  | no binding | no binding | no binding | no binding | no binding | no binding
B6 |  |  | no binding | no binding | no binding | no binding | no binding | no binding
B7 | 100 | 84.6 |  |  |  |  |  | 
